Reference: the Human Domainome abundance scans (Beltran et al. 2025)
± gives the uncertainty stated by the source.

B1: Zinc finger MYM-type protein 2, residues 463 to 506; numbered along this chain, Q9UBW7 (parent)
chain: IMNCCEQCGEYLPSKGAGNNVLVIDGQQKRFCCQSCVSEYKQVG

Variants of: B1
Test: abundance fitness (aPCA) (normalised: wild type 0, dead -1); higher = more abundant; growth selection in yeast, the domain comes from the species named
Conditions: Homo sapiens

Abundance fitness of substitutions, site by site:
M2: H -0.25 ± 0.19 | S 0.073 ± 0.087 | R -0.179 ± 0.079 | P -0.376 ± 0.15 | N -0.009 ± 0.29 | A -0.162 ± 0.1 | G -0.148 ± 0.074 | L -0.104 ± 0.093 | I -0.145 ± 0.1 | C -0.286 ± 0.13
I24: F 0.052 ± 0.18 | M -0.122 ± 0.16 | S -0.09 ± 0.084 | A 0.005 ± 0.094
Q7: D -0.466 ± 0.12 | V -0.288 ± 0.082 | G -0.137 ± 0.073 | W -0.214 ± 0.091
P13: T -0.094 ± 0.13 | E -0.171 ± 0.15 | R -0.515 ± 0.16 | W -0.536 ± 0.13 | L -0.438 ± 0.2 | V -0.669 ± 0.4 | M -0.59 ± 0.14 | N -0.565 ± 0.23 | H -0.187 ± 0.17
G16: A -0.06 ± 0.1 | R -0.562 ± 0.078 | S -0.047 ± 0.12 | E 0.136 ± 0.11 | P -0.175 ± 0.14 | C -0.113 ± 0.085
V43: R -0.039 ± 0.1 | M -0.218 ± 0.14 | T -0.026 ± 0.13 | S -0.159 ± 0.16 | L -0.222 ± 0.15 | E -0.067 ± 0.091 | G 0.039 ± 0.091
L22: F -0.184 ± 0.35 | A -0.072 ± 0.088 | P -0.059 ± 0.17 | W -0.187 ± 0.13 | N -0.163 ± 0.41 | E 0.015 ± 0.1 | C -0.258 ± 0.13 | K -0.073 ± 0.12
Q42: S -0.023 ± 0.13 | R 0.063 ± 0.072 | L -0.101 ± 0.11 | V 0.151 ± 0.087 | K -0.045 ± 0.26 | T 0.002 ± 0.11 | N 0.438 ± 0.38
C33: Q -0.086 ± 0.13 | M -0.201 ± 0.12 | E 0.008 ± 0.082 | N -0.164 ± 0.18 | T -0.031 ± 0.11 | G -0.023 ± 0.069
V37: K -0.101 ± 0.085 | S -0.161 ± 0.099 | C 0.018 ± 0.15 | A -0.063 ± 0.083 | T 0.049 ± 0.13 | R -0.112 ± 0.072
L12: D -0.174 ± 0.11 | M -0.46 ± 0.14 | E -0.004 ± 0.077 | R -0.498 ± 0.072 | T -0.28 ± 0.097 | C -0.384 ± 0.11 | N -0.482 ± 0.17
Q34: T -0.031 ± 0.1 | W -0.226 ± 0.082 | N -0.028 ± 0.25 | M 0.044 ± 0.11 | K -0.213 ± 0.13 | S 0.009 ± 0.085 | C -0.113 ± 0.11 | H 0.004 ± 0.13 | V 0.036 ± 0.084 | E 0.087 ± 0.12 | F -0.039 ± 0.13 | A 0.061 ± 0.075 | G -0.017 ± 0.072 | P -0.033 ± 0.11
C32: F -0.653 ± 0.36 | G -0.313 ± 0.067 | T -0.433 ± 0.085 | M -0.537 ± 0.12 | W -0.559 ± 0.084 | A -0.354 ± 0.076
C36: F -0.665 ± 0.16 | Y -0.445 ± 0.15 | T -0.106 ± 0.13 | I 0.163 ± 0.3 | G -0.303 ± 0.081 | V -0.463 ± 0.091 | D -0.262 ± 0.16
N3: G -0.119 ± 0.076 | M -0.194 ± 0.092 | I -0.237 ± 0.32 | P -0.345 ± 0.084 | T -0.249 ± 0.097
I1: M 0.169 ± 0.22 | A -0.051 ± 0.085 | L -0.246 ± 0.29 | S -0.172 ± 0.12 | R -0.255 ± 0.094 | F -0.307 ± 0.13 | V 0 ± 0.1 | Y -0.402 ± 0.21 | G -0.15 ± 0.089 | D 0.231 ± 0.19
N20: G -0.119 ± 0.082 | M -0.038 ± 0.1 | R -0.285 ± 0.086 | L -0.103 ± 0.1 | H 0.087 ± 0.16 | C 0 ± 0.11 | D -0.248 ± 0.48 | Y -0.065 ± 0.12
Q28: I -0.038 ± 0.33 | W -0.405 ± 0.094 | P -0.065 ± 0.11 | Y -0.305 ± 0.16 | H 0.117 ± 0.2 | K -0.301 ± 0.18 | C -0.47 ± 0.15 | D 0.189 ± 0.22 | A -0.133 ± 0.086 | T -0.032 ± 0.1
G18: P 0.007 ± 0.19 | A 0.015 ± 0.13
Y40: Q 0.067 ± 0.12 | F -0.334 ± 0.4 | S 0.121 ± 0.1 | I -0.249 ± 0.14 | K -0.057 ± 0.18 | C 0.429 ± 0.29 | N -0.309 ± 0.39 | V -0.108 ± 0.1 | R -0.037 ± 0.07 | M -0.167 ± 0.12
K29: R -0.06 ± 0.079 | L -0.067 ± 0.085 | E -0.231 ± 0.14 | T -0.313 ± 0.14 | N -0.464 ± 0.21 | P -0.499 ± 0.12 | M -0.018 ± 0.12 | H 0.051 ± 0.086 | Q -0.283 ± 0.15 | A -0.235 ± 0.085 | V -0.078 ± 0.082 | G -0.234 ± 0.082 | C -0.752 ± 0.26 | W -0.432 ± 0.086 | S -0.329 ± 0.11
N19: K -0.287 ± 0.11 | H -0.157 ± 0.11 | I -0.141 ± 0.13 | R -0.249 ± 0.087
K15: L -0.094 ± 0.11 | A 0.089 ± 0.077 | H 0.119 ± 0.15 | C -0.012 ± 0.092 | M 0.3 ± 0.19 | P 0.189 ± 0.096 | Y 0.07 ± 0.21
K41: Q 0.006 ± 0.092 | M -0.059 ± 0.12 | Y -0.41 ± 0.25 | P 0.014 ± 0.083 | A -0.096 ± 0.086 | S 0.027 ± 0.094 | T 0.209 ± 0.13 | F -0.285 ± 0.15
G9: R -0.436 ± 0.076 | C -0.148 ± 0.12 | D -0.671 ± 0.15 | E -0.495 ± 0.11 | F -0.001 ± 0.17 | K -0.511 ± 0.11 | V -0.563 ± 0.083 | Y 0.102 ± 0.15 | P -0.68 ± 0.12 | T -0.018 ± 0.099 | A -0.17 ± 0.082 | W -0.442 ± 0.083
S38: M -0.038 ± 0.11 | Q -0.01 ± 0.16 | D -0.081 ± 0.16 | C -0.108 ± 0.14 | I -0.106 ± 0.25 | H -0.183 ± 0.32 | K -0.025 ± 0.11 | T -0.113 ± 0.12
E39: M 0.087 ± 0.13 | K 0.33 ± 0.12 | S 0.054 ± 0.1 | C 0.204 ± 0.11 | P -0.285 ± 0.13 | W -0.478 ± 0.098 | G 0.095 ± 0.083
S14: T -0.09 ± 0.12 | M -0.361 ± 0.12 | R -0.456 ± 0.089 | K -0.283 ± 0.16 | P 0.33 ± 0.22 | D 0.241 ± 0.13 | L -0.107 ± 0.076 | E 0.13 ± 0.19
R30: M 0.068 ± 0.091 | L 0.177 ± 0.069 | P 0.092 ± 0.089 | E 0.3 ± 0.094 | Y -0.354 ± 0.41 | H -0.464 ± 0.34 | C 0.262 ± 0.17 | D 0.165 ± 0.12 | G 0.026 ± 0.071
A17: K -0.521 ± 0.16 | R -0.628 ± 0.11 | T -0.309 ± 0.33 | C -0.11 ± 0.13 | G -0.095 ± 0.095 | V -0.223 ± 0.11 | H -0.337 ± 0.15 | E 0.116 ± 0.096
C5: G -0.7 ± 0.068 | W -1.5 ± 0.12 | K -0.38 ± 0.16 | H -0.641 ± 0.31 | V -0.884 ± 0.094
V23: N -0.123 ± 0.1 | D -0.017 ± 0.1 | M 0.18 ± 0.11 | E 0.204 ± 0.12 | F 0.23 ± 0.28
V21: D -0.014 ± 0.13 | S -0.153 ± 0.1 | L -0.162 ± 0.11 | E 0.128 ± 0.092 | K 0.395 ± 0.35 | A -0.065 ± 0.098 | G -0.129 ± 0.088 | Q -0.172 ± 0.13
D25: K -0.155 ± 0.14 | T -0.06 ± 0.28 | P -0.456 ± 0.14 | W -0.618 ± 0.21 | R -0.229 ± 0.11 | G -0.076 ± 0.082 | H 0.126 ± 0.18 | L -0.455 ± 0.13 | S -0.279 ± 0.14
G26: Q -0.083 ± 0.12 | D 0.183 ± 0.34 | K -0.251 ± 0.1 | T -0.291 ± 0.1 | I -0.296 ± 0.25 | L -0.307 ± 0.089 | S -0.065 ± 0.096 | A -0.059 ± 0.1 | W -0.337 ± 0.075 | E -0.077 ± 0.098
Q27: W -0.198 ± 0.1 | V -0.144 ± 0.095 | R -0.206 ± 0.091 | L -0.045 ± 0.097 | E -0.1 ± 0.11
G44: V -0.144 ± 0.11 | P -0.217 ± 0.4 | L -0.262 ± 0.17
E6: Y -0.267 ± 0.17 | R -0.369 ± 0.082 | P -0.253 ± 0.085 | V -0.256 ± 0.1 | A -0.197 ± 0.082 | T -0.222 ± 0.14 | Q -0.116 ± 0.15
C4: W -0.242 ± 0.11 | Q 0.142 ± 0.12 | D -0.007 ± 0.12 | G -0.089 ± 0.072 | L -0.09 ± 0.07 | P -0.126 ± 0.086 | M -0.146 ± 0.11
F31: Y -0.144 ± 0.12 | V -0.373 ± 0.081 | P -0.223 ± 0.094 | N -0.392 ± 0.37 | W -0.498 ± 0.092
C8: G -0.391 ± 0.082 | E -0.307 ± 0.097 | R -0.611 ± 0.089 | F -1.18 ± 0.18 | M -1.1 ± 0.23 | H -0.233 ± 0.12 | W -1.41 ± 0.12 | Y -0.311 ± 0.48 | S -0.337 ± 0.1 | V -0.712 ± 0.077
Y11: C 0.035 ± 0.097 | R 0.219 ± 0.074 | E 0.296 ± 0.091 | S 0.252 ± 0.099 | I -0.145 ± 0.1 | V 0.117 ± 0.077 | A 0.176 ± 0.092 | H 0.298 ± 0.11 | F -0.133 ± 0.087
S35: G 0.024 ± 0.077 | M -0.087 ± 0.11 | V -0.092 ± 0.1 | A -0.072 ± 0.074 | L -0.136 ± 0.07 | F -0.226 ± 0.19 | C -0.113 ± 0.088 | K 0.156 ± 0.1
E10: W -0.4 ± 0.13 | P -0.356 ± 0.17 | M -0.656 ± 0.13 | I -0.66 ± 0.28 | L -1.08 ± 0.15 | D -0.197 ± 0.1 | S -0.358 ± 0.14 | H -0.224 ± 0.27 | A -0.477 ± 0.12 | K -0.068 ± 0.15 | V -0.86 ± 0.1
